Tests used:
Type in all cases: cell-based
CD4+ T-cells [1] = test: Luciferase bioluminescence of transduced T-cells, resting versus stimulated; settings: for bioluminescence as compared to T-cells at resting: Raji target cells (activate CAR), FIG. 17; for amount of bioluminescence, comparison among RDE constructs: with either promoter (MinP or NFAT)
Text: The anti-CD19 CAR cassette and the insert with the luciferase-RDE1 are transcribed in opposite directions, and the control regions for each are located in between the two insert/cassettes. The control region for the Luciferase-RDE1 insert and Luciferase-3′-UTR were either a MinP promoter or an NFAT promoter having the sequences of:
The control region of the anti-CD19 CAR cassette was the MND promoter. CD4+ T-cells were transduced with the bicistronic construct.
The transduced T cells were allowed to return to resting state, and then were tested after stimulation as follows. For the ‘no stimulation’ set, transduced T-cells were incubated for 24 h alone in medium. For the ‘Raji co-culture’ set and the “CD3/CD28 Beads” set, CD19+ Raji B cells or anti-CD3/anti-CD28 beads were incubated with the transduced T cells for 24 h. At 24 h, the T cells were stained for CD25 and CD69, which are activation markers, and subject to flow cytometry to measure these markers and luciferase expression in the T cells.
Combinations of these inserts/cassettes shown in FIG. 17 were placed in the similar lenti virus constructs. The anti-CD19 CAR cassette and the insert with the luciferase-RDE are transcribed in opposite directions, and the control regions for each are located in between the two insert/cassettes. The control region for the Luciferase-RDE insert and Luciferase-3′-UTR were either a MinP promoter or an NFAT promoter. The control region of the anti-CD19 CAR cassette was the MND promoter, and CD4+ T-cells were transduced with the bicistronic construct.
The transduced T cells were allowed to return to resting state, and then were tested after stimulation as follows. For the ‘no stimulation’ set, transduced T-cells were incubated for 24 h alone in medium. For the ‘Raji co-culture’ set CD19+ Raji B cells were incubated with the transduced T cells for 24 h. At 24 h, the T cells were stained for CD25 and CD69, which are activation markers, and subject to flow cytometry to measure these markers and luciferase expression in the T cells.

CD4+ T-cells [2] = test: IL-12 expression of transduced T cells by ELISA, resting versus Raji co-culture
Text: The anti-CD19 CAR cassette and the insert with the IL-12-RDE1 are transcribed in opposite directions, and the control regions for each are located in between the two insert/cassettes. The control region for the IL-12-RDE1 insert and IL-12 3′-UTR were either a minP promoter or an NFAT promoter. The control region of the anti-CD19 CAR cassette was the MND promoter. CD4+ T-cells were transduced with the bicistronic construct.
The transduced T cells were allowed to return to resting state, and then were tested after stimulation as follows. For the ‘no stimulation’ set, transduced T-cells were incubated for 24 h alone in medium. For the ‘Raji co-culture’ set, CD19+ Raji B cells were incubated with the transduced T cells for 24 h. At 24 h, the T cells were stained for CD25 and CD69, which are activation markers, and subject to flow cytometry to measure these markers. IL-12 expression in the T cells was measured by ELISA.

[3] = Expression from constructs with 3′-UTR RDEs after removal of microRNA binding sites; settings: MIR186 micro-RNA sites removed from the 3′-UTR of IL-2
Text: The AU-rich element from the 3′-UTR of IL-2 has mir-181 and mir 186 microRNA binding sites. Different combinations of the microRNA sites were removed from the 3′-UTR of IL-2. When the MIR186 micro-RNA sites were removed from the 3′-UTR of IL-2 the dynamic range of expression from constructs with this UTR increased 50 fold. The modified IL-2, 3′-UTR replaces CTT in the sequence with GAA and is shown below (the new GAA is underlined in the sequence):
Different combinations of the micro-RNA sites were removed from the 3′UTR of IFNg and tested for increased expression. When the mir125 micro-RNA sites were removed from the 3′-UTR of IFN-γ the expression rate from constructs with this UTR is increased.

B1: RDE1: RNA destabilizing element: endogenous 3′-UTR of IFNg (SEQ ID NO: 30), controlling luciferase or IL-12 in anti-CD19 CAR CD4+ T-cells (nucleic acid, listed as Homo sapiens)
DNA: TGGTTGTCCTGCCTGCAATATTTGAATTTTAAATCTAAATCTATTTATTAATATTTAACATTATTTATATGGGGAATATATTTTTAGACTCATCAATCAAATAAGTATTTATAATAGCAACTTTTGTGTAATGAAAATGAATATCTATTAATATATGTATTATTTATAATTCCTATATCCTGTGACTGTCTCACTTAATCCTTTGTTTTCTGACTAATTAGGCAAGGCTATGTGATTACAAGGCTTTATCTCAGGGGCCAACTAGGCAGCCAACCTAAGCAAGATCCCATGGGTTGTGTGTTTATTTCACTTGATGATACAATGAACACTTATAAGTGAAGTGATACTATCCAGTTACTGCCGGTTTGAAAATATGCCTGCAATCTGAGCCAGTGCTTTAATGGCATGTCAGACAGAACTTGAATGTGTCAGGTGACCCTGATGAAAACATAGCATCTCAGGAGATTTCATGCCTGGTGCTTCCAAATATTGTTGACAACTGTGACTGTACCCAAATGGAAAGTAACTCATTTGTTAAAATTATCAATATCTAATATATATGAATAAAGTGTAAGTTCACAACTA
With B1 the “increase in bioluminescence with CAR stimulation” value (shortened to “increase … with CAR stimulation”) (CD4+ T-cells [1]; MinP promoter) was 4.1 fold, the “increase … with CAR stimulation” value (CD4+ T-cells [1]; NFAT promoter) was 8.5 fold and the “on-off response from CAR stimulation versus TCR stimulation” value (CD4+ T-cells [1]; NFAT promoter, luciferase) was “larger on-off response”. For the same molecule, the “bioluminescence as compared to T-cells at resting” value (CD4+ T-cells [1]) was “increase in bioluminescence”, the “amount of bioluminescence compared with luciferase not controlled by an RDE (3′-UTR)” value (CD4+ T-cells [1]; all conditions, same promoter) was “lower amounts of bioluminescence” and the “on-off response with NFAT promoter compared with MinP promoter and the corresponding RDE” value (CD4+ T-cells [1]; luciferase, Raji co-culture) was “larger on-off response”. The “amount of bioluminescence, comparison among RDE constructs” value (“amount … comparison among RDE constructs” for short) (CD4+ T-cells [1]) was “lowest amount of bioluminescence”, the “change in IL-12 expression from resting to CAR stimulation” value (CD4+ T-cells [2]; MinP promoter) was 6.3 fold and the “change in IL-12 expression from resting to CAR stimulation” value (CD4+ T-cells [2]; NFAT promoter) was 168 fold.

B2: RDE3: 3′-UTR of IL-2 modified to remove the mir186 sites (CTT replaced with GAA, SEQ ID NO: 29) (nucleic acid, listed as Homo sapiens)
DNA: TAATTAAGTGCTTCCCACTTAAAACATATCAGGCCTTCTATTTATTTAAATATTTAAATTTTATATTTATTGTTGAATGTATGGTTTGCTACCTATTGTAACTATTATTCTTAATCTTAAAACTATAAATATGGATCTTTTATGATTGAATTTGTAAGCCCTAGGGGCTCTAAAATGGTTTCACTTATTTATCCCAAAATATTTATTATTATGTTGAATGTTAAATATAGTATCTATGTAGATTGGTTAGTAAAACTATTTAATAAATTTGATAAATATAAA
With B2 the “increase … with CAR stimulation” value (CD4+ T-cells [1]; MinP promoter) was 1.4 fold, the “increase … with CAR stimulation” value (CD4+ T-cells [1]; NFAT promoter) was 1.3 fold and the “bioluminescence as compared to T-cells at resting” value (CD4+ T-cells [1]) was “increase in bioluminescence”. For the same molecule, the “amount … comparison among RDE constructs” value (CD4+ T-cells [1]) was “highest amount of bioluminescence” and the “increase of dynamic range of expression from constructs with this UTR” value [3] was 50 fold.

B3: RDE2: RNA destabilizing element: endogenous 3′-UTR of IL-2 (SEQ ID NO: 28), controlling luciferase in anti-CD19 CAR CD4+ T-cells (nucleic acid, listed as Homo sapiens)
DNA: TAATTAAGTGCTTCCCACTTAAAACATATCAGGCCTTCTATTTATTTAAATATTTAAATTTTATATTTATTGTTGAATGTATGGTTTGCTACCTATTGTAACTATTATTCTTAATCTTAAAACTATAAATATGGATCTTTTATGATTCTTTTTGTAAGCCCTAGGGGCTCTAAAATGGTTTCACTTATTTATCCCAAAATATTTATTATTATGTTGAATGTTAAATATAGTATCTATGTAGATTGGTTAGTAAAACTATTTAATAAATTTGATAAATATAAA
With B3 the “increase … with CAR stimulation” value (CD4+ T-cells [1]; MinP promoter) was 1.8 fold, the “increase … with CAR stimulation” value (CD4+ T-cells [1]; NFAT promoter) was 3.1 fold and the “bioluminescence as compared to T-cells at resting” value (CD4+ T-cells [1]) was “increase in bioluminescence”. For the same molecule, the “amount … comparison among RDE constructs” value (CD4+ T-cells [1]) was “between RDE3 and RDE1”.
